From patent US20090081226A1

Experiments:
[1] = target: CD94/NKG2A receptor (human) (UniProt Q13241); test: cell-based or functional assay
[2] = target: membrane-bound HLA-E (human); test: cell-based or functional assay
[3] = target: membrane-bound HLA-E (human); test: flow cytometry on short term cultured melanocytes
[4] = target: membrane-bound HLA-E (human); test: flow cytometry on a panel of 22 melanoma cell lines

Sequence of UniProt Q13241 (Q13241 other isoform, or with tags, fused parts or gaps, chain 1 of 2): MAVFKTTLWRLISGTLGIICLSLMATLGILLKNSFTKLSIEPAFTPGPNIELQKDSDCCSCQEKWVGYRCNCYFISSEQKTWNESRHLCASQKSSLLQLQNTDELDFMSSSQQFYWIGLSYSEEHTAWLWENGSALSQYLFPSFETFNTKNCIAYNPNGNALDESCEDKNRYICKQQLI
Sequence of UniProt Q13241 (chain, as listed by the source, chain 2 of 2): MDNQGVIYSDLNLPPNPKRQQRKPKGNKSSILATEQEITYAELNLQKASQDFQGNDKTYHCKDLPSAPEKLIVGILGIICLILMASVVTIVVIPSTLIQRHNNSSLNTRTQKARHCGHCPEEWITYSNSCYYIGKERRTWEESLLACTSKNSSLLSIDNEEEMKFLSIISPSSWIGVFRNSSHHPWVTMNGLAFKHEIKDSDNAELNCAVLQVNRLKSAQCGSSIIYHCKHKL

membrane-bound HLA-E (from UniProt P61769 21-119) (peptide-MHC)
NK-mediated cytotoxicity, specific lysis (51Cr release) of ECs (% specific lysis) [1]: 2.6

anti-HLA-E mAb MEM-E/06 (antibody)
NK-mediated cytotoxicity, specific lysis (51Cr release) of IFNγ-activated HAEC (% specific lysis) [2]: 34.9

anti-HLA-E mAb MEM-E/07 (antibody)
ratio fluorescence intensity (RFI) (ratio (MFI test / MFI negative control)) [3]: 3 to 7
ratio fluorescence intensity (RFI) (ratio (MFI test / MFI negative control)) [4]: 1 to 4
